Measured values reported in the DeepSol protein solubility set.

assay: soluble on expression in E. coli; label from the status in PepcDB or PDB records

Row | Sequence | soluble on expression in E. coli
1 | MSANFTDKNGRQSKGVLLLRTLAMPSDTNANGDIFGGWIMSQMDMGGAILAKEIAHGRVVTVAVESMNFIKPISVGDVVCCYGQCLKVGRSSIKIKVEVWVKKVASEPIGERYCVTDAVFTFVAVDNNGRSRTIPRENNQELEKALALISEQPL | soluble
2 | MGSDKIHHHHHHENLYFQGMFRPQDDFTYLMPVHFGGGKFDPETLVTQKATALSLSFETERDLLENYIPEGFELLAPEVQVAFNKFTEINWLHGGQYNLINVAAPVRFHGKKDELDGAYTLVVWENKTAPILGGREQTGIPKIYADIEDLHIVRPHFATTVSYEGNTFLNMDFEATGSITGRDLDALKSQFLTMNTLGWRYIPKVGAPGAELSQFVLYPQGMEVETAEVGKGSLKWTELTPMQSPAQYYIVNSLASLPIKRVTQAVLVEGRAILRAMGARVIE | soluble
3 | MAHHHHHHMFAFLNVAFMAAIRRKLKELKPPARRQSHRCAPEVYSQEGPTRHYFLPSVERIDKKTCISHRLLYIPEVENFPLVDGFFFVKSNPMTLVGLRMTTAGEHHTAASTVRQFTECLAAYFNGWEELSREMSWEMIYVQHADSTPMNDWQRCDVDNSNNLTEEGREIAAFWNEKVRQYQVSI | not soluble
4 | MSLEALMNVQFFDHAHHKLKIRGLQSPVDVLTFEGREQLSTPFRYDIQFTSSDKAIAPESVLMQDGAFSLTAPPVQGMPVQTALRTLHGVITGFKHLSSSQDEARYEVRLEPRMALLTRSRQNAIYQNQTVPQIVEKILRERHQMRGQDFVFNLKSEYPAREQVMQYGEDDLTFVSRLLSEVGIWFRFATDARLKIEVIEFYDDQSGYERGLTLPLRHPSGLFDGETEAVWGLNTAYSVVEKSVSTRDYNYREATAEMTTGQHDATGGDNTTYGEAYHYADNFLQQGDKEAAESGAFYARIRHERYLNEQAILKGQSTSSLLMPGLEIKVQGDDAPAVFRKGVLITGVTTSAARDRSYELTFTAIPYSERYGYRPALIPRPVMAGTLPARVTSTVKNDIYAHIDKDGRYRVNLDFDRDTWKPGYESLWVRQSRPYAGDTYGLHLPLLAGTEVSIAFEEGNPDRPYIAGVKHDSAHTDHVTIQNYKRNVLRTPANNKIRLDDERGKEHIKVSTEYGGKSQLNLGHLVDAGKEQRGEGFELRTDLWGAVRAKKGIFISADAQDKAQGQVLEMQPALARLSAALVTMESLAASAQQAQALAADVSRQQTLLQQKIEQLQQEVLLGSAPKGVALVSGEDMQLSASDNLTLTAGKQLDIGVQKDFTLAAGKQLSLYSRAGAKLFSSHNDIDIQAQGGNLTTWSTQDTYISSGKKLVVTAQDELTLICGGGYIKIKSGNVEIGGPGKLLVKNAGIKKAGSGSMQGVMKSFEPESFDENFIISNPASGKPIANQKYEIHMPDGSVIAGITDAMGYSSLVASKASDDLKIILKKEGHHHHHH | soluble
5 | MSKLGKQDVYYFEGLDDILIAMMTTKDAVGTEPAFGEVVRLPIATKLGIKGNGTALEKWASSKMFRRVSRETKHEIALDHVGIPIAVMDEIKGLIAQSGVTFGKNTAREFPYFAFGFIGNIENGGKKAVWYPKTQLSNVIDEEYTTAEDETKIDDVTANFVSTGLTYNNVMYSSFDSNRDSASIELFEKFIAQPVYDEEQWKKLAGPSRGGGSELEHHHHHH | soluble
6 | MRVVVTGATGFVGQQVVKALSDRGDQVVALVRSPGKAAKQFAGVPRVEWLGYTPKAAGDWFSALEGADAVIHLAGEPLANGRWTPQRKQEIYDSRVVGTQQLVQAIAQCQQRPRVLVSTSAIGYYGTSDTETFVETHAAGNDFLAKVCGDWEAAAQGVTELGVRLVILRFGIVLGEQGALAKLLLPFQLYLGGPLGSGQQWFSWIHQQDLVRLILTAVDQVGMQGVYNATAPEPLRMADFCRILAEVMQRPSWLPVPAPVLQLLLGEGADVVLKGQRVLPERTLATGFEFHYPNAKTALTNLLKPRYTEGSRLEHHHHHH | soluble
7 | MGSDKIHHHHHHMKLRILSDLHIEHAMPQAVPACDADIVILAGDIANGRDGIDWAARTFGQPLIYVPGNHEYYEGNVDAVDRLMADAAATHPGVHLLNGAVAEFSGASGRVRVLGTTWWTDYCLFGTDRREASMQACSAVMLDHRLIELNGDDGHLRHFSPEDALARHHIASAWLAGQLALPFDGKTVVVTHHGPDLGSLDPRYSHDLVSGGFLSRRPDLVAQADLWIHGHTHTSFDYCIDTSRVVCNPRGYVSRRTGELENSRFDWCCVVEI | not soluble
8 | MSLDEVECSADHIARPILILKETRRLPWATGYAEVINAGKSTHNEDQASCEVLTVKKKAGAVTSTPNRNSSKRRSSLPNGEGLQLKENSESEGVSCHYWSLFDGHAGSGAAVVASRLLQHHITEQLQDIVDILKNSAVLPPTCLGEEPENTPANSRTLTRAASLRGGVGAPGSPSTPPTRFFTEKKIPHECLVIGALESAFKEMDLQIERERSSYNISGGCTALIVICLLGKLYVANAGDSRAIIIRNGEIIPMSSEFTPETERQRLQYLAFMQPHLLGNEFTHLEFPRRVQRKELGKKMLYRDFNMTGWAYKTIEDEDLKFPLIYGEGKKARVMATIGVTRGLGDHDLKVHDSNIYIKPFLSSAPEVRIYDLSKYDHGSDDVLILATDGLWDVLSNEEVAEAITQFLPNCDPDDPHRYTLAAQDLVMRARGVLKDRGWRISNDRLGSGDDISVYVIPLIHGNKLSEGHHHHHH | soluble
9 | AHHHHHHGSFEISIYLPTEIVFGPGKLEMLPKLVKKHGLSGKALIVTGRRSTKETGVLYRVQELLKQAGVESIVFDKIIPNPISTHVDEGAEIARKENVSFVVGLGGGSAIDSAKAIAMTAASGGKYWDYVPAVGGGKKPTGALPIVAIPTTHGTGTEADPYAVITNPETKEKQGIGYDVLFPKFSIVDPELMLTLPKDQTVYTSMDAFYHSIEAFLNVRANPYSDVLALDSMRRIVTYLPLAYENLRNLEARTQLAWASTEAGITETVTGVVANHALEHGLSGFYPEVPHGLGLCILGPYLFEYILDYAYEKLAIVGREVFGVYEPNDRKAAELAIKKLRDFQSLFGVNKKLRELGVKEEDIPEMARTAYRMMKPVIEATPGDLKVEDLEEIYRRAY | soluble
10 | MTNVLIEDLKWRGLIYQQTDEQGIEDLLNKEQVTLYCGADPTADSLHIGHLLPFLTLRRFQEHGHRPIVLIGGGTGMIGDPSGKSEERVLQTEEQVDKNIEGISKQMHNIFEFGTDHGAVLVNNRDWLGQISLISFLRDYGKHVGVNYMLGKDSIQSRLEHGISYTEFTYTILQAIDFGHLNRELNCKIQVGGSDQWGNITSGIELMRRMYGQTDAYGLTIPLVTKSDGKKFGKSESGAVWLDAEKTSPYEFYQFWINQSDEDVIKFLKYFTFLGKEEIDRLEQSKNEAPHLREAQKTLAEEVTKFIHGEDALNDAIRISQALFSGDLKSLSAKELKDGFKDVPQVTLSNDTTNIVEVLIETGISPSKRQAREDVNNGAIYINGERQQDVNYALAPEDKIDGEFTIIRRGKKKYFMVNYQ | soluble
11 | MSDWNPSLYLHFAAERSRPAVELLARVPLENVDYVADLGCGPGNSTALLHQRWPAARITGIDSSPAMIAEARSALPDCQFVEADIRNWQPEQALDLIFANASLQWLPDHYELFPHLVSLLNPQGVLAVQMPDNWLEPTHVLMREVAWEQNYPDRGRESLAGVHAYYDILSEAGCEVDIWRTTYYHQMPSHQAIIDWVTATGLRPWLQDLTESEQQLFLTRYHQMLKEQYPLQENGQILLAFPRLFIVARRTE | soluble
12 | LLSKKEIITVNVAPGHHFNDVITVKGMADEEIDKTTCGDLKFHLTEKQENLEQKQIFLKNFDDGAGEDLYTSITISLSEALTGFEKFLTKTFDDRLLTLSVKPGRVVRPGDTIKIANEGWPILDNPHGRCGDLYVFVHIEFPPDNWFNEKSELLAIKTNLPSSSSCASHATVNTEDDSNLTNNETISNFRIIHTDDLPEGIRPFKPEAQDSAHQKARSSYCCIQ | not soluble
13 | MGSDKIHHHHHHMKQQYTATVVMATYNGEKNILEQLDSLKNQSKKIDEVLIWDDCSTDSTVKIIENFISENKLGETWHLQINTENLGWRKNFFNLLNAATKEIVFTCDQDDIWDASKIEVMCEAFANTDVKVLVSDYTELVEPGGLAEELKKIDSVKLPNQKAEQIIFNENNLFLRRPGCVYAIRKSFIANVNLYASEMENPVHDMAMWGSSLLSDGLYIVREELIRWRKHGQSSFKKEIDLAKKQNHFEERLNTLRRRLQRTEAAKNYLNNQPHVEEFEYKDKVLSNLIKELNMRVSLLERKKIIPILCAFFKYHHKFYFSTDIYHIMKYKIRK | not soluble
14 | MEEKFTPEEQAIYDEHFASDRPVELVEPEQVREAFNAEESSQQPSVEPLQEQPNSGVIEQERQARQKAEQKAMEARELAIEFAQKYAQMQEEAVRRRDENIPTLEDDPKAHVAWLSHKVQEQQKLLDEFSRIRESQERLNQEEYERQKLGDYFEEAKAQVQDKYPDLDSITDYLYERADSVLQAQADLYPQWKDPAARQQQIGAELRQICQQCQKAGINPIEVLVQKAKAFGYSGAPIKDEVETLQERSQAARTLTARGGQVPTGGMDMRTLFSMPDAEFAVWVEKNPEKFEQIMSRT | not soluble
15 | GAMIRSRQPLLDALGVDLPDELLSLALTHRSYAYENGGLPTNERLEFLGDAVLGLTITDALFHRHPDRSEGDLAKLRASVVNTQALADVARRLCAEGLGVHVLLGRGEANTGGADKSSILADGMESLLGAIYLQHGMEKAREVILRLFGPLLDAAPTLGAGLDWKTSLQELTAARGLGAPSYLVTSTGPDHDKEFTAVVVVMDSEYGSGVGRSKKEAEQKAAAAAWKALEVLDNAMPGKTSA | soluble
16 | MASPHQEPKPGDLIEIFRLGYEHWALYIGDGYVIHLAPPSEYPGAGSSSVFSVLSNSAEVKRERLEDVVGGCCYRVNNSLDHEYQPRPVEVIISSAKEMVGQKMKYSIVSRNCEHFVTQLRYGKSRCKQVEKAKVEVGVATALGILVVAGCSFAIRRYQKKATALEHHHHHH | not soluble
17 | MTARTITDVITRPLPPLPLTAAASAEVLPDWAQPARRHPAAQPWPENLTRMAVGVVDSTGATGWFGPVSATVARMVFDQVAPAVIGRELAAWRAMASLAPHGRHRQGAHLRLAVSAVELAAWDLRSHATGVPVGALLAGERRERIPVYATALGIDIDHPLAPDIAAWLVDEGFWAQKWGLPGAARGETPRADAARLRRLREAAGERARIGVDVGGRWPADYARQMLPVLAEAGVCWVEEPGPISDADLARHGLARAAGEHDYEPTDQLRTLGGDIQIWQPDPTWCGGLAHTLSMVELAARLNIRSLPHGSGLAAALALAASAPAAAVPAIEYHLTLEPLRQDHQLDPLVPAAGHLDARTAAGLTSGYRFGEGDAGAAA | soluble
18 | VRSYLLRIELADRPGSLGSLAVALGSVGADILSLDVVERGNGYAIDDLVVELPPGAMPDTLITAAEALNGVRVDSVRPHTGLLEAHRELELLDHVAAAEGATARLQVLVNEAPRVLRVSWCTVLRSSGGELHRLAGSPGAPETRANSAPWLPIERAAALDGGADWVPQAWRDMDTTMVAAPLGDTHTAVVLGRPGPEFRPSEVARLGYLAGIVATMLR | soluble
19 | MGSDKIHHHHHHMTGNQMFCRENELDESFKQLASYINIPVGVLLPFKSQCFVRHYNKGQIVYYSSDETTHIYLLLKGNIMRENFNLNGDVYRYLNREKVLFPLNNLFQDKVPNEMCTALTDCEMIGIPRDLIEYLCKNHEEIFVKLFSLLSETQCQHIEYNMALTSKLAKERVTKILRYLCQTVGYDHDEFYEIKHFMTIQLLSDMAGISRETTSHIINELREEKILFKNSKNWLVSKDL | not soluble
20 | MGSSHHHHHHGKTIFVIVPTNEEQVAFLEALAKQDELNFDWQNPPTEPGQPVVILIPSDMVEWFLEMLKAKGIPFTVYVEEGGSENLYFQGGGGGGRPIVANRARHPALIVDIPFAALAWQCVQFLAVVVAHSLMRQMMLASVIRFTAVFLGIRRCRGAFVVAPLFVLQPLLQHLQQLITHPLTCLQGGIQWQLHALVEHLVHLQHLPSPRVQLSHVTKKRRAPVRKVVCGRIIHVHRTLLLLKQLRLLGVPGTQRAESSEHGGEPLTAVLVQLDKSIASRSGDNGDGGGRCR | not soluble
